# B1: Tubulin-folding cofactor A (Arabidopsis thaliana (Mouse-ear cress)), O04350 (parent)
# chain: MATIRNLKIKTSTCKRIVKELHSYEKEVEREAAKTADMKDKGADPYDLKQQENVLGESRMMIPDCHKRLESALADLKSTLAELEETDEKEGPEIEDAKKTVADVEKQFPTEDA
# Variants of: B1
# Conditions: with tbb9_arath TUBB9, P29517
# Sequence of tbb9_arath TUBB9, P29517 (P29517 whole entry): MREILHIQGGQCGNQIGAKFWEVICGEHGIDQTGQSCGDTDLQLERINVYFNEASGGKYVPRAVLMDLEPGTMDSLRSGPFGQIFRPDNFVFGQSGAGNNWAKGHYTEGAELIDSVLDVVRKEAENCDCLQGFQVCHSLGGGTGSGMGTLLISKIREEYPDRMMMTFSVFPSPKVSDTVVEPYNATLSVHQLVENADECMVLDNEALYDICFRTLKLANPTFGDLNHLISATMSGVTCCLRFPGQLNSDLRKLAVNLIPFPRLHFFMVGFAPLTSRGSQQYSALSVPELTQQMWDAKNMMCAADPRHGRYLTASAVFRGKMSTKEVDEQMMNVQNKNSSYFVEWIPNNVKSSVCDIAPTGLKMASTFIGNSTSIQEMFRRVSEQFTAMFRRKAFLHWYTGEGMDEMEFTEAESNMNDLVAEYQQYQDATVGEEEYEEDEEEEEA
row,effect of a mutation on the interaction,Variant
1,disrupting interaction,MATIRNLKIKTSTCKRIVKALHSYEKEVEREAAKTADMKDKGADPYDLKQQENVLGESRMMIPDCHKRLESALADLKSTLAELEETDEKEGPEIEDAKKTVADVEKQFPTEDA [E20A]

# Variants of: B1
# Conditions: with tbb9_arath TUBB9, P29517
# Remark: another data set of the same source
row,effect of a mutation on the interaction,Variant
1,disrupting interaction,MATIRNLKIKTSTCKRIVKELHSAEKEVEREAAKTADMKDKGADPYDLKQQENVLGESRMMIPDCHKRLESALADLKSTLAELEETDEKEGPEIEDAKKTVADVEKQFPTEDA [Y24A]

# Variants of: B1
# Conditions: with tbb9_arath TUBB9, P29517
# Remark: another data set of the same source
row,effect of a mutation on the interaction,Variant
1,disrupting interaction,MATIRNLKIKTSTCKRIVKELHSYEKEVEREAAKTADMKDKGADPYDLKQQENVLGASRMMIPDCHKRLESALADLKSTLAELEETDEKEGPEIEDAKKTVADVEKQFPTEDA [E57A]

# From IntAct's records for PubMed 20638386
